Results as given in patent US20240400657A1 (MorphoSys, published 2024).
Substitutions are numbered along the chain they refer to.

T1: full length mouse C5aR stably expressed on CHO Flp-In cells (mouse (Mus musculus), UniProt P30993 1-351)
T1 sequence: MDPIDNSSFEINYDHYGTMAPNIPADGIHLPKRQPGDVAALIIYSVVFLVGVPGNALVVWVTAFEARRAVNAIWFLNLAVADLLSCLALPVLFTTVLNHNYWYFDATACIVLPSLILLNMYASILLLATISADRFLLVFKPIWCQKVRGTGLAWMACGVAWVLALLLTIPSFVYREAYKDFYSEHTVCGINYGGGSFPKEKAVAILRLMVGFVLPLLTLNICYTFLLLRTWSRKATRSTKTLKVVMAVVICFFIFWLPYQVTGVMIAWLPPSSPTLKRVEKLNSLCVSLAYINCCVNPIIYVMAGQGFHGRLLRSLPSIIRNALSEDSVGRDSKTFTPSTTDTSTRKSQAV

T2: cynomolgus C5aR_NT-bio peptide (cynomolgus monkey, biotin tag (position not given))
T2 construct: Chemically synthesized linear peptide (Genscript); also called cynomolgus C5aR N-terminal peptide; cynomolgus C5aR peptide
T2 peptide: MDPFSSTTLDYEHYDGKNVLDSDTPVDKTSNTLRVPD

T3: human C5aR_NT-bio peptide (human, biotin tag (position not given))
T3 construct: Chemically synthesized linear peptide (Genscript); also called human C5aR N-terminal peptide; human C5aR peptide
T3 peptide: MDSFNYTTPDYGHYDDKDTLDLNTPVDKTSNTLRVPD

B1: MAB #2 (antibody, human IgG1, lambda)
heavy: EVQLVESGGGLVKPGGSLRLSCAASGFTFSSYAMHWVRQAPGKGLEWVGRIKSVAQGGTTDYAAHVKGRFTISRDDSKNTLYLQMNSLKTEDTAVYYCARVSHSTFDVWGQGTLVTVSSASTKGPSVFPLAPSSKSTSGGTAALGCLVKDYFPEPVTVSWNSGALTSGVHTFPAVLQSSGLYSLSSVVTVPSSSLGTQTYICNVNHKPSNTKVDKRVEPKSCDKTHTCPPCPAPEAEGAPSVFLFPPKPKDTLMISRTPEVTCVVVDVSHEDPEVKFNWYVDGVEVHNAKTKPREEQYNSTYRVVSVLTVLHQDWLNGKEYKCKVSNKALPSSIEKTISKAKGQPREPQVYTLPPSREEMTKNQVSLTCLVKGFYPSDIAVEWESNGQPENNYKTTPPVLDSDGSFFLYSKLTVDKSRWQQGNVFSCSVMHEALHNHYTQKSLSLSPGK
light: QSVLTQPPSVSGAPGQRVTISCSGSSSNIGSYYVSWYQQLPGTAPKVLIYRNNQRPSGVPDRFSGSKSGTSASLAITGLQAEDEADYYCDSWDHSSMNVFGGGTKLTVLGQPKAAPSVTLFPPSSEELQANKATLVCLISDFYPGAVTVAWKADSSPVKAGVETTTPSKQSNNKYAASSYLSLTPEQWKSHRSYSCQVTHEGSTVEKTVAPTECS
notes: lambda 1 light chain
B2: MAB #1 (antibody, human IgG1, lambda)
heavy: B1 heavy with V54K, H103F
light: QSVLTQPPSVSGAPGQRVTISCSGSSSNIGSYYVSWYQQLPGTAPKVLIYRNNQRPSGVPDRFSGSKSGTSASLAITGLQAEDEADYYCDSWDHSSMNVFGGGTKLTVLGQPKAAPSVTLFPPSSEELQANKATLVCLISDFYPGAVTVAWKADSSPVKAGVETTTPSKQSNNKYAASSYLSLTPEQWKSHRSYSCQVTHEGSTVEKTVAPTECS
notes: lambda 1 light chain, VH3-15 framework

Experiments:
[1] = target: T4, Human FcRn p51 [1-297]/AviHis/p14 biotinylated (human, UniProt P55899 24-298; P16213 21-119); assay: BLI (Octet HTX), biotinylated FcRn on SA sensors, IgG titrated, steady state fit, apparent KD, pH 6.0; * deviation from fit model; pH 6.0
T4 construct: Heterodimer of two polypeptides; UniProt P55899 (p51), P61769 (p14) printed
From the text: 0.5 nm of biotinylated human, cynomolgus, mouse and rat FcRn were captured on streptavidin (SA) sensors (FortéBIO, Pall Life Sciences). […] All sensorgrams were fitted using Data Analysis Software 10.0 (FortéBIO, Pall Life Sciences) to determine the apparent affinity and the data was fitted with a steady state model.

[2] = target: T1, full length mouse C5aR stably expressed …; assay: FACS, CHO Flp-In cells expressing murine C5aR, single IgG concentration
[3] = target: rat transferrin (rat, UniProt P12346 20-698); assay: Octet based binding assay
[4] = target: cynomolgus transferrin (cynomolgus, UniProt A0A2K5UXZ0 20-695); assay: Octet based binding assay
[5] = target: T2, cynomolgus C5aR_NT-bio peptide; assay: SPR (Biacore T200), IgG captured on anti-human-Fc, peptide as analyte, 1:1 fit, monovalent; value marked * (for ranking purposes; fast kon, fast koff)
[6] = target: T3, human C5aR_NT-bio peptide; assay: BLI (Octet HTX), biotinylated peptide on SA sensors, IgG as analyte, 1:1 fit, apparent (bivalent)
[7] = target: T5, Cell surface rec. 2_Fc (h); assay: Protein Panel Profiling (3P), MSD ECL, coated antigen, IgG 10 nM
T5 construct: identity not disclosed
Method: (§1) 32 different proteins and controls were coated on two 384-well MSD standard plates at a concentration of 1.0 μg/mL at 4° C. over night. The coating solution was discarded and plates were blocked with 50 μL 3% (w/v) BSA in PBS for one hour at RT on a microtiter plate shaker (˜500 rpm) followed by three washing steps with 50 μL washing buffer (PBS with 0.05% (v/v) Tween 20). IgG samples were diluted to 100 nM and 10 nM in assay buffer (PBS with 0.5% (w/v) BSA, 0.05% (v/v) Tween 20). As controls, isotype control antibody MOR03207 (IgG1f_AEASS) and assay buffer were used. Samples and controls were added at 30 μL/well and incubated for three hours at RT on a microtiter plate shaker. The plates were washed three times and 30 μL detection antibody (ECL-labeled anti-human Fab) were added per well and incubated for one hour on a microtiter plate shaker (˜500 rpm). After washing the MSD plate and adding 35 μL/well MSD Read Buffer T with surfactant, electro-chemiluminescence signals were detected using a SECTOR® Imager S600 instrument (Meso Scale Diagnostics).
(§2) For evaluation, binding signals of the antibody sample to a certain protein were divided by the respective binding signals of the reference antibody MOR03207 resulting in a binding ratio (BR). The cumulative binding ratio (CBR) of all proteins except the controls (25 in total) was then calculated: CBR up to 150 indicates an IgG without detectable unspecific binding. Values above 150 indicates an IgG with increased unspecific binding compared to the reference antibody MOR03207.

[8] = target: RNase A; assay: as above
Method: as §1, §2

[9] = target: Cytochrome C; assay: as above
Method: as §1, §2

[10] = target: T6, Serum albumin (h) (human); assay: as above
T6 construct: '(h)' on the sheet read as human
Method: as §1, §2

[11] = target: Pepsinogen; assay: as above
Method: as §1, §2

[12] = target: Trypsin inhibitor; assay: as above
Method: as §1, §2

[13] = target: Trypsinogen; assay: as above
Method: as §1, §2

[14] = target: Amyloglycosidase; assay: as above
Method: as §1, §2

[15] = target: Antitrypsin; assay: as above
Method: as §1, §2

[16] = target: T7, Cell surface rec. 1_Lys (h); assay: as above
T7 construct: identity not disclosed
Method: as §1, §2

[17] = target: bovine transferrin (bovine, UniProt Q29443 20-704); assay: as above
Method: as §1, §2

[18] = target: T8, Fc (h); assay: as above
T8 construct: '(h)' on the sheet read as human
Method: as §1, §2

[19] = target: Myoglobin; assay: as above
Method: as §1, §2

[20] = target: T9, anti-human Fc; assay: as above
T9 construct: control of the 3P panel; it captures human IgG as such, so a ratio of 1 means a signal equal to that of MOR03207
Method: as §1, §2

[21] = target: RNase B; assay: as above
Method: as §1, §2

[22] = target: T10, Protein A; assay: as above
T10 construct: control of the 3P panel
Method: as §1, §2

[23] = target: T3, human C5aR_NT-bio peptide; assay: as above
Method: as §1, §2

[24] = target: T11, Hemoglobin (h) (human); assay: as above
T11 construct: '(h)' on the sheet read as human
Method: as §1, §2

[25] = target: GFP; assay: as above
Method: as §1, §2

[26] = target: T12, Cell surface rec. 3_Fc (h); assay: as above
T12 construct: identity not disclosed
Method: as §1, §2

[27] = target: T2, cynomolgus C5aR_NT-bio peptide; assay: BLI (Octet), apparent (bivalent)

T4 sequence (P55899 other isoform, or with tags, fused parts or gaps limits assumed, chain 1 of 2): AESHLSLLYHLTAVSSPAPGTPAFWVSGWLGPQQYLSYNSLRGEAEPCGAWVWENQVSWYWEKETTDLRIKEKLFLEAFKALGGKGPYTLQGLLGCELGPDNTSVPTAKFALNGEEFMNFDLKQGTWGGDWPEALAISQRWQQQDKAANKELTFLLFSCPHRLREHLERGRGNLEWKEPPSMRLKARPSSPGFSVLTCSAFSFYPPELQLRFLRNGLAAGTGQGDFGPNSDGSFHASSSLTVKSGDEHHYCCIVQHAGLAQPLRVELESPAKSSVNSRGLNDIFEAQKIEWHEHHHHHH
T4 sequence (P16213 21-119 limits assumed, chain 2 of 2): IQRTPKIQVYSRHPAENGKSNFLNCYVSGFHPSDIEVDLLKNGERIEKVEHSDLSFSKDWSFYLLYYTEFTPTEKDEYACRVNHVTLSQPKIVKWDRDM
T11 sequence (P69905 2-142, chain 1 of 2): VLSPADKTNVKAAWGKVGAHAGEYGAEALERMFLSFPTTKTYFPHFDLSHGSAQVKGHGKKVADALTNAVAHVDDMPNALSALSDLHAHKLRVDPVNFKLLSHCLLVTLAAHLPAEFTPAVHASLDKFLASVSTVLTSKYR
T11 sequence (P68871 2-147, chain 2 of 2, further chain): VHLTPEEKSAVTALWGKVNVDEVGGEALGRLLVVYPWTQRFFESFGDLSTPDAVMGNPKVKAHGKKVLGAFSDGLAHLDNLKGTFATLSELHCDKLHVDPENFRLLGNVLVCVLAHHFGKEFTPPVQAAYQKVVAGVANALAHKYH
Chain of bovine transferrin (Q29443 20-704 limits assumed): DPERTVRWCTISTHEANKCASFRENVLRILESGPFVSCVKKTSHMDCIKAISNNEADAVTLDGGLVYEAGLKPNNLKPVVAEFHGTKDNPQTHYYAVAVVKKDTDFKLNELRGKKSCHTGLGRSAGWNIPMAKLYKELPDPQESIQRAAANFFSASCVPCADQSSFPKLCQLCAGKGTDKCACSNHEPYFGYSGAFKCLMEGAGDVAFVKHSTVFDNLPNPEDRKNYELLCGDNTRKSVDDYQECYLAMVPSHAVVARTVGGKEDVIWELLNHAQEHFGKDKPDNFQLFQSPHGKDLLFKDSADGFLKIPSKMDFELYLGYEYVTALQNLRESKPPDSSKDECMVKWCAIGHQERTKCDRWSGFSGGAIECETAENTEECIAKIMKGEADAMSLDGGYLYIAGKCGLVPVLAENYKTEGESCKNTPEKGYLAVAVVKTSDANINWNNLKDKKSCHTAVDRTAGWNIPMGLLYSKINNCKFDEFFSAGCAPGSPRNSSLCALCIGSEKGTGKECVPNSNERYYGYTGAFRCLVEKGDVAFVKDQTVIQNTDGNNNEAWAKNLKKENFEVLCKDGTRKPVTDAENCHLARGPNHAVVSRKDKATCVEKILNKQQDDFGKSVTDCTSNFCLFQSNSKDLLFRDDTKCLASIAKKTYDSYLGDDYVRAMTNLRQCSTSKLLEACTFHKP
T6 sequence (P02768 25-609): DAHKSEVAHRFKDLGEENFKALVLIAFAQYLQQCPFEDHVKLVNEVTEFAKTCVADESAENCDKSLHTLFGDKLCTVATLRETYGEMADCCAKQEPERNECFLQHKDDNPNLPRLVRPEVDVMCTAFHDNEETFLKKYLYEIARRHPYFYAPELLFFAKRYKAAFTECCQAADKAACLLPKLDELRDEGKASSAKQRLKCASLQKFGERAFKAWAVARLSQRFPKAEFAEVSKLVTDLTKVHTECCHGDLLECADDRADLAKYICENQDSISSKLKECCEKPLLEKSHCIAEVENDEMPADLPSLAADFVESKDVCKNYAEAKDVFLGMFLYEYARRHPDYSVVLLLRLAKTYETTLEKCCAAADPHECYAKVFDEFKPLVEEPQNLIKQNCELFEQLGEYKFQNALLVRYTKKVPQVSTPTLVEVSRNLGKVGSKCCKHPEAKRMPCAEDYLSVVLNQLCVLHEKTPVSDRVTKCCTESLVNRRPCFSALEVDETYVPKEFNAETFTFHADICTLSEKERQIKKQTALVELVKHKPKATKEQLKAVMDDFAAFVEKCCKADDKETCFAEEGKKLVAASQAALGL
Chain of RNase A (P61823 27-150): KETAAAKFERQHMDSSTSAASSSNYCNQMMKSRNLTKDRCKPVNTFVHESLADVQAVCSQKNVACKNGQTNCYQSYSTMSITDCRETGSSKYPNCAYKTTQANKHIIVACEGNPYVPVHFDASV
Chain of RNase B (P61823 27-150): as above
Chain of rat transferrin (P12346 20-698 limits assumed): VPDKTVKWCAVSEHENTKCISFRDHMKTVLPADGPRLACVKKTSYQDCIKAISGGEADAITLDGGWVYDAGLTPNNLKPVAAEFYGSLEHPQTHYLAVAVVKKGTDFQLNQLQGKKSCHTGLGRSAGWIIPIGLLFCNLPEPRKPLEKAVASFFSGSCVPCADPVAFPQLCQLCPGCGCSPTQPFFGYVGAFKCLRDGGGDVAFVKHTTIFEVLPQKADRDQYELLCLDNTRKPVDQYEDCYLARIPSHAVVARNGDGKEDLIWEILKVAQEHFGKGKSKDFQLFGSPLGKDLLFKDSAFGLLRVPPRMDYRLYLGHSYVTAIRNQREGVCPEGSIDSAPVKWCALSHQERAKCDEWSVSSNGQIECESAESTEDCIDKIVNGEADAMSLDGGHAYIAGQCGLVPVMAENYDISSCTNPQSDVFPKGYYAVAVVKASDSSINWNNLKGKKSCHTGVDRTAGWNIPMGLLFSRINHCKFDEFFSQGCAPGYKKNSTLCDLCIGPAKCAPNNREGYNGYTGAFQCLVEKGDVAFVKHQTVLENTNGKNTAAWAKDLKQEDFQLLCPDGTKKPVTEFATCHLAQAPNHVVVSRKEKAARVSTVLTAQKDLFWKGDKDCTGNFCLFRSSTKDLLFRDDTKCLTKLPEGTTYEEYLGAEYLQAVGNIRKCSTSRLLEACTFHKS

Row | Binder | Kd [1] | binding result [2] | binding result [3] | binding result [4] | Kd [5] | koff [5] | kon [5] | Kd [6] | koff [6] | kon [6] | binding ratio (signal / signal of MOR03207) [7] | binding ratio (signal / signal of MOR03207) [8] | binding ratio (signal / signal of MOR03207) [9] | binding ratio (signal / signal of MOR03207) [10] | binding ratio (signal / signal of MOR03207) [11] | binding ratio (signal / signal of MOR03207) [12] | binding ratio (signal / signal of MOR03207) [13] | binding ratio (signal / signal of MOR03207) [14] | binding ratio (signal / signal of MOR03207) [15] | binding ratio (signal / signal of MOR03207) [16] | also measured
1 | B1 | 36 nM | no binding (tested: 300 nM) | no binding | no binding | 34 µM | 0.145 s⁻¹ | 4290 M⁻¹ s⁻¹ | 0.29 nM | 0.000111 s⁻¹ | 378000 M⁻¹ s⁻¹ | 1 | 2 | 1 | 1 | 1 | 3 | 1 | 1 | 2 | 1 | binding ratio (signal / signal of MOR03207) [17]: 4; binding ratio (signal / signal of MOR03207) [18]: 1; binding ratio (signal / signal of MOR03207) [19]: 1; binding ratio (signal / signal of MOR03207) [20]: 1; binding ratio (signal / signal of MOR03207) [21]: 1; binding ratio (signal / signal of MOR03207) [22]: 1; binding ratio (signal / signal of MOR03207) [23]: 46; binding ratio (signal / signal of MOR03207) [24]: 1; binding ratio (signal / signal of MOR03207) [25]: 1; binding ratio (signal / signal of MOR03207) [26]: 2; fold weaker binding than to the human C5aR peptide [27]: ~1000 fold
2 | B2 | 9 nM | no binding (tested: 300 nM) | no binding | no binding | 8.2 µM | 0.111 s⁻¹ | 13600 M⁻¹ s⁻¹ | 0.02 nM | 9.99e-06 s⁻¹ | 476000 M⁻¹ s⁻¹ | 1 | 2 | 1 | 2 | 1 | 2 | 1 | 1 | 1 | 1 | binding ratio (signal / signal of MOR03207) [17]: 8; binding ratio (signal / signal of MOR03207) [18]: 1; binding ratio (signal / signal of MOR03207) [19]: 1; binding ratio (signal / signal of MOR03207) [20]: 1; binding ratio (signal / signal of MOR03207) [21]: 1; binding ratio (signal / signal of MOR03207) [22]: 1; binding ratio (signal / signal of MOR03207) [23]: 82; binding ratio (signal / signal of MOR03207) [24]: 1; binding ratio (signal / signal of MOR03207) [25]: 1; binding ratio (signal / signal of MOR03207) [26]: 2; fold weaker binding than to the human C5aR peptide [27]: ~1000 fold
